From the supplement of paper PMC10126150
± gives the standard deviation of the averaged measurements.

tested on: ATP; experiment: switch fluorescence ratio, 500 uM ATP over buffer (Cy3 cluster intensity, sum of 5 cycles each) (fold (ratio)); higher = stronger signal-on switching upon ATP binding; sequences stand for … in TCGTCGGCAGCGTCAGATGTGTATAAGAGACAGTTTTTTTTTTTTTTTTTTTTTTTTT…TC; conditions: aptamer strand: ATP DNA aptamer (quencher-CACCTGGGGGAGTATTGCGGAGGAAGG + anchor), 100 nM annealed; ATP concentration: 500 uM
Method in brief: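 Values give the fluorescence ratio for each switch-domain sequence, averaged from per-cluster ratios of summed target-cycle to summed buffer-cycle Cy3 intensity. The Cy3-labelled switching-strand clusters sat on a modified Illumina MiSeq flow-cell, were annealed to 100 nM quencher-labelled ATP aptamer, and were imaged in selection buffer, then after 15 min with 500 uM ATP at 22 °C. Five cycles ran with NaOH stripping and re-annealing between them, and clusters outside 100-1000 RFU were excluded.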
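Note: ATP exposure 15 min at 22 °C before imaging.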

| Sequence | switch fluorescence ratio |
| --- | --- |
| GACAGGGATG | 1.02 ± 0.039 |
| GACAGGTCGT | 1.043 ± 0.0054 |
| GACAGGTGGG | 1.07 ± 0.059 |
| GACATAAAAG | 1.03 ± 0.053 |
| GACATTCTCG | 1.005 ± 0.0086 |
| GACATTTGTT | 0.986 ± 0.014 |
| GACCACGGTC | 1.02 ± 0.041 |
| GACCACTATC | 1.1 ± 0.02 |
| GACCATACGT | 1.49 ± 0.026 |
| GACCATGAAA | 0.96295 ± 0.0008 |
| GACCATGGGG | 1.07 ± 0.098 |
| GACCATTGTC | 0.99 ± 0.063 |
| GACCATTTAA | 1.023 ± 0.0027 |
| GACCCGCCAA | 4.89 ± 1 |
| GACCCTTACC | 1.38 ± 0.014 |
| GACCGATTGT | 1.03 ± 0.065 |
| GACCGCAGCA | 4.22 ± 0.49 |
| GACCTTGGGA | 0.992 ± 0.039 |
| GACCTTTCGT | 1.1 ± 0.069 |
| GACGAAAAAG | 0.982 ± 0.017 |
| GACGACATGT | 1.09 ± 0.035 |
| GACGACGTGC | 2.33 ± 0.44 |
| GACGACTCGG | 0.987 ± 0.026 |
| GACGAGCCTG | 0.996 ± 0.015 |
| GACGAGGGGC | 1.18 ± 0.031 |

| Sequence | switch fluorescence ratio |
| --- | --- |
| GACGATTATA | 1.028 ± 0.0017 |
| GACGCACTGG | 1.853 ± 0.0015 |
| GACGCGTGTG | 1.03 ± 0.042 |
| GACGCTAAGG | 1.094 ± 0.0069 |
| GACGGAGGCA | 1.03 ± 0.031 |
| GACGGATACA | 1.38 ± 0.091 |
| GACGGCTATG | 1 ± 0.048 |
| GACGGGCAGG | 1.027 ± 0.0056 |
| GACGGGGAAG | 1.08 ± 0.069 |
| GACGGGGAAT | 0.979 ± 0.01 |
| GACGGGGCGG | 0.994 ± 0.031 |
| GACGGGGCTA | 1.01 ± 0.023 |
| GACGGGGGGA | 1.03 ± 0.077 |
| GACGGGGGGG | 1 ± 0.023 |
| GACGGTAAAA | 1.04 ± 0.015 |
| GACGGTAGTA | 1.02 ± 0.017 |
| GACGGTGTGC | 1.077 ± 0.0059 |
| GACGGTTCAG | 1.03 ± 0.023 |
| GACGTACAAC | 1.619 ± 0.0099 |
| GACGTACTCA | 1.51 ± 0.17 |
| GACGTCTGGC | 1.14 ± 0.24 |
| GACGTGATCC | 2.5 ± 0.8 |
| GACGTGTTG | 1.01 ± 0.025 |
| GACGTTAAAC | 1.56 ± 0.019 |
| GACGTTAAAT | 1.01 ± 0.034 |

| Sequence | switch fluorescence ratio |
| --- | --- |
| GACGTTTTGC | 1.073 ± 0.0083 |
| GACTAACGCA | 1.25 ± 0.057 |
| GACTAACGGA | 1.19 ± 0.1 |
| GACTAACTAC | 1.251 ± 0.0087 |
| GACTAAGGGG | 1 ± 0.02 |
| GACTAATTAA | 0.978 ± 0.036 |
| GACTAGGCCT | 0.988 ± 0.02 |
| GACTAGTTAT | 0.993 ± 0.019 |
| GACTATAATT | 1.026 ± 0.0032 |
| GACTATGAGG | 1.02 ± 0.095 |
| GACTATTGAA | 1 ± 0.056 |
| GACTCAGGGG | 1.39 ± 0.56 |
| GACTGCGGAA | 2.04 ± 0.038 |
| GACTGGATAG | 0.983 ± 0.022 |
| GACTGTAGGA | 1.03 ± 0.0051 |
| GACTGTGAGA | 1 ± 0.034 |
| GACTGTTATG | 0.989 ± 0.024 |
| GACTTAATGG | 0.962 ± 0.051 |
| GACTTAGTGT | 1.012 ± 0.0036 |
| GACTTATGAG | 1.01 ± 0.047 |
| GACTTGAATG | 0.976 ± 0.011 |
| GACTTGACTG | 1.11 ± 0.03 |
| GACTTGGGTG | 1.02 ± 0.038 |
| GACTTGTGTA | 0.994 ± 0.016 |
| GACTTTAGGG | 1.02 ± 0.065 |

| Sequence | switch fluorescence ratio |
| --- | --- |
| GAGAAAAATG | 0.9597 ± 0.0087 |
| GAGAAAAGGG | 1.04 ± 0.037 |
| GAGAAAGCTA | 1.031 ± 0.0084 |
| GAGAAAGGTT | 1.09 ± 0.2 |
| GAGAACATGG | 1.03 ± 0.035 |
| GAGAAGGGAC | 1.03 ± 0.046 |
| GAGAATGGGG | 0.983 ± 0.024 |
| GAGAATTGTA | 0.97 ± 0.03 |
| GAGACAATTC | 1.06 ± 0.017 |
| GAGACGCTTT | 1.04 ± 0.049 |
| GAGACTATTT | 0.976 ± 0.056 |
| GAGACTGATG | 1.05 ± 0.14 |
| GAGACTTAGA | 1.007 ± 0.0038 |
| GAGACTTGTT | 0.997 ± 0.042 |
| GAGAGCCGAA | 1.02 ± 0.062 |
| GAGAGCGGGG | 0.968 ± 0.033 |
| GAGAGGGAAT | 1.021 ± 0.0091 |
| GAGAGGGGTA | 0.974 ± 0.014 |
| GAGAGGGTAC | 1.03 ± 0.063 |
| GAGAGTGAAT | 1.01 ± 0.081 |
| GAGAGTTAAA | 0.976 ± 0.015 |
| GAGATAAGAG | 1.01 ± 0.022 |
| GAGATAAGCT | 1.04 ± 0.022 |
| GAGATAGAGA | 1.02 ± 0.03 |
| GAGATATTGT | 1.03 ± 0.038 |
